The series “mass photometry” concerns the molecule itself. Put plainly: mass photometry.
Series [1] concerns the molecule itself. Nature of the series: mass photometry; SEC fractions of His-tagged membrane proteins purified on Ni-NTA and reconstituted into peptidiscs, diluted 100-fold in PBS to ~5-20 nM; main species: subunits together in the native oligomer or complex in one disc.
Series [2] has as its target T1, vitamin B12 ABC transporter BtuCD, reconstituted in peptidiscs (E. coli, UniProt P06609 1-326; P06611 1-249).
T1 chain 1: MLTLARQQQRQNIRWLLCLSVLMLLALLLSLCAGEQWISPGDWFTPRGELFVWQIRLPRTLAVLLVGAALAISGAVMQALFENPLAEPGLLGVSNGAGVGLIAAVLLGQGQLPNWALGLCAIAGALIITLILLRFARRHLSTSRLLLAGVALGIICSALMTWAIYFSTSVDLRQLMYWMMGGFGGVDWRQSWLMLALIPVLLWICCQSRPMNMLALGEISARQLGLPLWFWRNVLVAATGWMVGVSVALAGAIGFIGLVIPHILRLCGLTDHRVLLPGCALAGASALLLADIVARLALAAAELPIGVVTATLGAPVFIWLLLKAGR
T1 chain 2: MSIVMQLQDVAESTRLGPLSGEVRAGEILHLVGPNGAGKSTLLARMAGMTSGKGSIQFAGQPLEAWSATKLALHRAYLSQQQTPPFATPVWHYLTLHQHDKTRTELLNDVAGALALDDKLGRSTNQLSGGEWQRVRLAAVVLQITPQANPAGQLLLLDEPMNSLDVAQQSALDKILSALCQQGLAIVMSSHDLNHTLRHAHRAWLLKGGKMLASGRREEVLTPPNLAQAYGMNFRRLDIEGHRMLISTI
Nature of the series: 1 mM ATP.

Series [3] deals with T1, vitamin B12 ABC transporter BtuCD, …. Put plainly: without ATP.

This is an account of results in paper PMC10831248, “Characterization of membrane protein interactions by peptidisc-mediated mass photometry” (iScience, 2024).

B1: mechanosensitive channel of large conductance (MscL) from Mycobacterium tuberculosis (natural protein)
chain: MLKGFKEFLARGNIVDLAVAVVIGTAFTALVTKFTDSIITPLINRIGVNAQSDVGILRIGIGGGQTIDLNVLLSAAINFFLIAFAVYFLVVLPYNTLRKKGEVEQPGDTQVVLLTEIRDLLAQTNGDSPGRHGGRGTPSPTDGPRASTESQ
notes: MscL, large-conductance mechanosensitive channel, Mycobacterium tuberculosis; also called M. Tb MscL; not shown: His6, C-terminal, kept
On to B1, for which, in the series “mass photometry”, the binding result is “binds”.

B2: trimeric drug efflux pump AcrB (natural protein, E. coli, UniProt P31224 1-1049, looked up)
chain: MPNFFIDRPIFAWVIAIIIMLAGGLAILKLPVAQYPTIAPPAVTISASYPGADAKTVQDTVTQVIEQNMNGIDNLMYMSSNSDSTGTVQITLTFESGTDADIAQVQVQNKLQLAMPLLPQEVQQQGVSVEKSSSSFLMVVGVINTDGTMTQEDISDYVAANMKDAISRTSGVGDVQLFGSQYAMRIWMNPNELNKFQLTPVDVITAIKAQNAQVAAGQLGGTPPVKGQQLNASIIAQTRLTSTEEFGKILLKVNQDGSRVLLRDVAKIELGGENYDIIAEFNGQPASGLGIKLATGANALDTAAAIRAELAKMEPFFPSGLKIVYPYDTTPFVKISIHEVVKTLVEAIILVFLVMYLFLQNFRATLIPTIAVPVVLLGTFAVLAAFGFSINTLTMFGMVLAIGLLVDDAIVVVENVERVMAEEGLPPKEATRKSMGQIQGALVGIAMVLSAVFVPMAFFGGSTGAIYRQFSITIVSAMALSVLVALILTPALCATMLKPIAKGDHGEGKKGFFGWFNRMFEKSTHHYTDSVGGILRSTGRYLVLYLIIVVGMAYLFVRLPSSFLPDEDQGVFMTMVQLPAGATQERTQKVLNEVTHYYLTKEKNNVESVFAVNGFGFAGRGQNTGIAFVSLKDWADRPGEENKVEAITMRATRAFSQIKDAMVFAFNLPAIVELGTATGFDFELIDQAGLGHEKLTQARNQLLAEAAKHPDMLTSVRPNGLEDTPQFKIDIDQEKAQALGVSINDINTTLGAAWGGSYVNDFIDRGRVKKVYVMSEAKYRMLPDDIGDWYVRAADGQMVPFSAFSSSRWEYGSPRLERYNGLPSMEILGQAAPGKSTGEAMELMEQLASKLPTGVGYDWTGMSYQERLSGNQAPSLYAISLIVVFLCLAALYESWSIPFSVMLVVPLGVIGALLAATFRGLTNDVYFQVGLLTTIGLSAKNAILIVEFAKDLMDKEGKGLIEATLDAVRMRLRPILMTSLAFILGVMPLVISTGAGSGAQNAVGTGVMGGMVTATVLAIFFVPVFFVVVRRRFSRKNEDIEHSHTVDHH
notes: AcrB, multidrug efflux pump subunit, E. coli; It is carried in a peptidisc; source: E. coli C43(DE3), purified (DDM extraction, Ni-NTA, reconstituted into peptidiscs, SEC); not shown: His6, C-terminal, kept
Take B2: in series [1], the binding result is “binds”.

B3: periplasmic B12 binding protein BtuF (natural protein)
chain: APRVITLSPANTELAFAAGITPVGVSSYSDYPPQAQKIEQVSTWQGMNLERIVALKPDLVIAWRGGNAERQVDQLASLGIKVMWVDATSIEQIANALRQLAPWSPQPDKAEQAAQSLLDQYAQLKAQYADKPKKRVFLQFGINPPFTSGKESIQNQVLEVCGGENIFKDSRVPWPQVSREQVLARSPQAIVITGGPDQIPKIKQYWGEQLKIPVIPLTSDWFERASPRIILAAQQLCNALSQVD
As to B3, the figures for the Kd in series [2] and in series [3] were 25 nM and 48 nM, respectively.

One may read the Kd as the equilibrium constant for the complex coming apart.
